What all share (assay): steady-state kinetics, HPLC of amide product
What all share (assay type): biochemical, Streptomyces sp. CB02304

In one series the target is PtmC^t (Streptomyces platensis, UniProt D8L2W0). To be noted: 8 at 750 μM (partial saturation), 16 varied 10-200 μM; 50 mM MOPS pH 6.5.
A further series deals with Nc1c(O)ccc(C(=O)O)c1O. To be noted: 16 at 250 μM.
The test system of another series is Nc1c(O)ccc(C(=O)S)c1O. The note with it: 16 at 250 μM, 9 varied 25-1500 μM, 50 mM MOPS pH 6.5, 30 °C.
The mark [1] stands for this setting: 8 varied 25-1500 μM, 50 mM MOPS pH 6.5, 30 °C.
Setting [2] is: 8 varied 100-1000 μM, 50 mM MOPS pH 6.5.

This note sets out measurements from publication PMC8153049 (ACS chemical biology, 2020).

Chain of PtmC^t (D8L2W0 1-279 limits assumed): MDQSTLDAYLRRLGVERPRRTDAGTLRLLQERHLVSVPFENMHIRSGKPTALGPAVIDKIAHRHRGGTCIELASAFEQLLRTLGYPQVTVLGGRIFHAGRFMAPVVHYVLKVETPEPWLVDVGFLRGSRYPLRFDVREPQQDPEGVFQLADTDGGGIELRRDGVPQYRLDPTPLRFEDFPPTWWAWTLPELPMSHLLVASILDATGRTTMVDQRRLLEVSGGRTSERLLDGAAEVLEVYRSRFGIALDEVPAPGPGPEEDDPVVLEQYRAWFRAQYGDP

For `CC(C)(COP(=O)(O)OP(=O)(O)OC[C@H]1O[C@@H](n2cnc3c(N)ncnc32)[C@H](O)[C@@H]1OP(=O)(O)O)[C@@H](O)C(=O)NCCC(=O)NCCSC(=O)CC[C@]1(C)C(=O)C=C[C@]23C[C@H]4C[C@H](O[C@@]4(C)C2)[C@H]31` [compound 16, platensicyl-CoA], the Km (in general, the substrate concentration at which the rate is half of its maximum) on PtmC^t is 23.7 ± 6.1 µM.

As to PtmC (Streptomyces platensis), the Km in the series on Nc1c(O)ccc(C(=O)O)c1O (setting [1]) turned out to be 372 ± 49 µM; with Nc1c(O)ccc(C(=O)S)c1O, 142 ± 54 µM. The kcat (usually the number of substrate molecules converted per active site and unit of time at saturation) stood at 1.54 ± 0.075 s⁻¹ in the series on Nc1c(O)ccc(C(=O)O)c1O (setting [1]) and 4.7 ± 0.067 s⁻¹ with Nc1c(O)ccc(C(=O)S)c1O.

With PtmC^t (Streptomyces platensis), in the series on Nc1c(O)ccc(C(=O)O)c1O (setting [2]), the Km was determined as 375 ± 119 µM and the kcat worked out at 0.318 ± 0.0417 s⁻¹.
